Experimental data as given in US7387779B2, “Anti-angiogenic proteins and fragments and methods of use thereof” (Beth Israel Deaconess Medical Center, priority 1998, dated 2008).

Tests used:
C-PAE cells [1] = assay: Total protein synthesis, 35S-methionine incorporation; assay type: cell-based, bovine
Method: Primary human renal epithelial cells (HRE) were purchased from Clonetics (San Diego, Calif., USA) and were maintained in REGM (Clonetics Corp.). Other cell lines were obtained and maintained as described above. Cells were serum-starved for 24 hrs (0.5% FCS), stimulated with 10% FCS in the presence of T3 peptide, Tumstatin-44-131, endostatin or rapamycin for 12-24 hours. After pre-incubation of cells in methionine-free media for 1 hour, cells were labeled with ^35S-methionine for 1 hour and incorporation of radioactivity into trichloracetic acid precipitates was analyzed (Sudhakar, A. et al., 2000, Biochem. 39:12929-38; Maeshima, Y. et al., 1996, J. Amer. Soc. Nephrol. 7:2219-29). ANOVA with a one-tailed Student's t test was used to identify significant differences in multiple comparisons in the present study. A level of P<0.05 was considered statistically significant.

PC-3 cells = assay: Annexin V-FITC apoptosis assay; assay type: cell-based, human
Method: Annexin V-FITC Labeling. In order to establish apoptosis as the potential mode of action for Canstatin, Annexin V-FITC was used to label externalized phosphatidylserine (PS), to assess apoptotic cells. 0.5×10^6 C-PAE cells, PC-3, 786-O and HEK 293 cells were added to each well of a 6 well tissue culture plate in 10% FBS supplemented DMEM (BioWhittaker, Walkersville, Md., USA) overnight. The next day, fresh medium was added to all wells together with 40 ng/ml TNF-α (positive control) or 15 μg/ml Canstatin. Control cells received an equal volume of PBS. After 24 hours of treatment, medium containing detached cells was collected and attached cells were trypsinized and combined with detached cells and centrifuged at 3,000×g. Cells were then washed and phosphatidyl-serine externalization (an early apoptotic indicator) was measured by labeling with FITC-labeled annexin V (Clontech, Palo Alto, Calif., USA) according to the manufacturer's instructions. Annexin V-FITC-labeled cells were counted using a FAC Star Plus flow cytometer (Becton-Dickenson, Waltham, Mass., USA). For each treatment 15,000 cells were counted and stored in listmode. […] Annexin V-FITC labeled cells were counted using a FACStar Plus flow cytometer (Becton-Dickinson, Waltham, Mass., USA). For each treatment, 15,000 cells were counted and stored in listmode.

C-PAE cells [2] = assay: Cell cycle analysis (propidium iodide, flow cytometry); assay type: cell-based, bovine; conditions: 10% FBS
HUVECs = assay: Endothelial tube formation on Matrigel; assay type: cell-based, human
Method: Tumstatin-44-131 was also found to inhibit endothelial tube formation, as shown by Matrigel assay. The Matrigel assay was performed as described in the examples above. Briefly, HUVECS were allowed to form tubes on Matrigel-coated plates incubated with or without 5 μg/ml E. Coli-expressed Tumstatin-44-131. BSA-treated cells and yeast-expressed human endostatin (5 and 20 μg/ml) was used as controls. […] The average percentage tube branch formation after treatment was 22.7±3.1 for the BSA treatment, 2.1±2.0 for Tumstatin-44-131 treatment, while the 5 μg/ml and 20 μg/ml endostatin produced an average of 19.4±3.0 and 7.5±6.0, respectively.

For LQRFTTMPFLFCNVNDVCNF [T3], the “maximal inhibition of protein synthesis” value (C-PAE cells [1]; 22.7 μM) was “about 45%”.

B1: Canstatin: NC1 domain of the α2 chain of Type IV collagen (SEQ ID NO:6) (protein, listed as Homo sapiens)
chain: VSIGYLLVKHSQTDQEPMCPVGMNKLWSGYSLLYFEGQEKAHNQDLGLAGSCLARFSTMPFLYCNPGDVCYYASRNDKSYWLSTTAPLPMMPVAEDEIKPYISRCSVCEAPAIAIAVHSQDVSIPHCPAGWRSLWIGYSFLMHTAAGDEGGGQSLVSPGSCLEDFRATPFIECNGGRGTCHYYANKYSFWLTTIPEQSFQGSPSADTLKAGLIRTHISRCQVCMKNL
B1 was tested, and the “apoptosis of PC-3 cells” value (PC-3 cells) was “no significant effect”.

B2: Tum-1: residues 54 to 244 of Tumstatin, lacking the N-terminal 53 amino acids (SEQ ID NO:22) (protein)
chain: QRAHGQDLGTLGSCLQRFTTMPFLFCNVNDVCNFASRNDYSYWLSTPALMPMNMAPITGRALEPYISRCTVCEGPAIAIAVHSQTTDIPPCPHGWISLWKGFSFIMFTSAGSEGTGQALASPGSCLEEFRASPFLECHGRGTCNYYSNSYSFWLASLNPERMFRKPIPSTVKAGELEKIISRCQVCMKKRH
modifications: Tum-1 (Tumstatin N-53) (amino acids 54-244 of SEQ ID NO10)
In the case of B2, the “IC50, inhibition of cell cycle progression” value (C-PAE cells [2]) is reported as “about 5 μg/ml”.

B3: endostatin: tumor associated angiogenesis inhibitor used as comparator (protein, UniProt P39060 1572-1754, looked up)
Endostatin: HSHRDFQPVLHLVALNSPLSGGMRGIRGADFQCFQQARAVGLAGTFRAFLSSRLQDLYSIVRRADRAAVPIVNLKDELLFPSWEALFSGSEGPLKPGARIFSFDGKDVLRHPTWPQKSVWHGSDPNGRRLTESYCETWRTEAPSATGQASSLLGGRLLGQSAASCHHAYIVLCIENSFMTASK
modifications: Endostatin
In the case of B3, the “average percentage tube branch formation” value (HUVECs; 5 μg/ml, BSA 22.7±3.1) is reported as 19.4±3.0, the “average percentage tube branch formation” value (HUVECs; 20 μg/ml endostatin) is reported as 7.5±6.0 and the “inhibition of protein synthesis” value (C-PAE cells [1]; 4.5 μM, 24 hours of serum stimulation, rapamycin 100 ng/ml) is reported as “did not inhibit protein synthesis”. For the same molecule, the “IC50, inhibition of cell cycle progression” value (C-PAE cells [2]) was “no activity”.

B4: Tumstatin-44-131: residues 44 to 131 of full-length Tumstatin (SEQ ID NO:33) (protein)
chain: FSFLFVQGNQRAHGQDLGTLGSCLQRFTTMPFLFCNVNDVCNFASRNDYSYWLSTPALMPMNMAPITGRALEPYISRCTVCEGPAIAI
modifications: Tumstatin-45-132 (amino acids 45-132 of SEQ ID NO10)
For B4, the “average percentage tube branch formation” value (HUVECs; 5 μg/ml, BSA 22.7±3.1) was 2.1±2.0.

B5: Tumstatin: NC1 domain of the α3 chain of type IV collagen, residues 1-244 (SEQ ID NO:10) (protein, listed as Homo sapiens)
chain: GLKGKRGDSGSPATWTTRGFVFTRHSQTTAIPSCPEGTVPLYSGFSFLFVQGNQRAHGQDLGTLGSCLQRFTTMPFLFCNVNDVCNFASRNDYSYWLSTPALMPMNMAPITGRALEPYISRCTVCEGPAIAIAVHSQTTDIPPCPHGWISLWKGFSFIMFTSAGSEGTGQALASPGSCLEEFRASPFLECHGRGTCNYYSNSYSFWLASLNPERMFRKPIPSTVKAGELEKIISRCQVCMKKRH
For B5, the “apoptosis of PC-3 cells” value (PC-3 cells) was “not observed”.
